Measured values from patent publication US7291332B2, “Inflammatory mediator antagonists” (SmithKline Beecham Corporation, priority 1998, dated 2007).
Residue numbers refer to the chain shown, from its start. Names and notes keep the numbering of the source. “Also recorded” adds a separate entry of the source.

T1: gp130-Fc (Homo sapiens, UniProt P40189)
T1 construct: DNA encoding the extracellular domain of human gp130 was amplified; made in house; host or cells: insect cells (Bac-to-Bac baculovirus) for gp130-Fc; E. coli BLR-DE3 for OSM
T1 sequence (P40189 23-619 limits assumed): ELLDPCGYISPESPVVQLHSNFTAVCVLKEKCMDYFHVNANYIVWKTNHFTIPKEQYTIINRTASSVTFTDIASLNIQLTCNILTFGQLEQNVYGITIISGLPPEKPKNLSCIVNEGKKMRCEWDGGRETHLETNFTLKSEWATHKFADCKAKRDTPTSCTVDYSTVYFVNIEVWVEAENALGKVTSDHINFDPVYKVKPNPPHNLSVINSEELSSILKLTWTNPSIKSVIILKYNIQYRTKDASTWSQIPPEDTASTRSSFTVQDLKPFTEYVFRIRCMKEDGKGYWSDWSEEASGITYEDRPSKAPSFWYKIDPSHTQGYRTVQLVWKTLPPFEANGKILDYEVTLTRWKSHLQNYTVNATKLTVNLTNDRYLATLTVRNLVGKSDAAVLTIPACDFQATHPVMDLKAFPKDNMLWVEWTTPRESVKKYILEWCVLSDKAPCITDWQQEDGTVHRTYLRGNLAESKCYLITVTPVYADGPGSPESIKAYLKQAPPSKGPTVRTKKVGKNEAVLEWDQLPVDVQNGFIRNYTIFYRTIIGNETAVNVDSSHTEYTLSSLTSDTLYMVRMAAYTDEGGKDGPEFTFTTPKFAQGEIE

B1: (13) Q20A: OSM-GST fusion, alanine for Gln 20 (protein)
chain: AAIGSCSKEYRVLLGQLQKATDLMQDTSRLLDPYIRIQGLDVPKLREHCRERPGAFPSEETLRGLGRRGFLQTLNATLGCVLHRLADLEQRLPKAQDLERSGLNIEDLEKLQMARPNILGLRNNIYCMAQLLDNSDTAEPTKAGRGASQPPTPTPASDAFQRKLEGCRFLHGYHRFMHSVGRVFSKWGESPNRSRR
modifications: left off: a dimerising Fc or GST; large carriers; small tags and cut ends
B2: (6) L13A: OSM-GST fusion, alanine for Leu 13 (protein)
chain: B1 chain with L13A, A20Q
B3: (9) Q16A: OSM-GST fusion, alanine for Gln 16 (protein)
chain: B1 chain with Q16A, A20Q
modifications: left off: a dimerising Fc or GST; large carriers; small tags and cut ends
B4: (20) G120A: OSM-GST fusion, alanine for Gly 120 (protein)
chain: B1 chain with A20Q, G120A
modifications: left off: a dimerising Fc or GST; large carriers; small tags and cut ends
B5: (1) S7A: OSM-GST fusion, alanine for Ser 7 (protein)
chain: B1 chain with S7A, A20Q
modifications: left off: a dimerising Fc or GST; large carriers; small tags and cut ends
B6: (27) D26A: OSM-GST fusion, alanine for Asp 26 (protein)
chain: B1 chain with A20Q, D26A
modifications: left off: a dimerising Fc or GST; large carriers; small tags and cut ends
B7: (26) Q25A: OSM-GST fusion, alanine for Gln 25 (protein)
chain: B1 chain with A20Q, Q25A
modifications: left off: a dimerising Fc or GST; large carriers; small tags and cut ends
B8: (24) Y126A: OSM-GST fusion, alanine for Tyr 126 (protein)
chain: B1 chain with A20Q, Y126A
modifications: left off: a dimerising Fc or GST; large carriers; small tags and cut ends
B9: (3) E9A: OSM-GST fusion, alanine for Glu 9 (protein)
chain: B1 chain with E9A, A20Q
modifications: left off: a dimerising Fc or GST; large carriers; small tags and cut ends
B10: (21) R122A: OSM-GST fusion, alanine for Arg 122 (protein)
chain: B1 chain with A20Q, R122A
modifications: left off: a dimerising Fc or GST; large carriers; small tags and cut ends
B11: (19) L119A: OSM-GST fusion, alanine for Leu 119 (protein)
chain: B1 chain with A20Q, L119A
modifications: left off: a dimerising Fc or GST; large carriers; small tags and cut ends
B12: (2) K8A: OSM-GST fusion, alanine for Lys 8 (protein)
chain: B1 chain with K8A, A20Q
modifications: left off: a dimerising Fc or GST; large carriers; small tags and cut ends
B13: (25) Y130A: OSM-GST fusion, alanine for Gln 130 (protein)
chain: B1 chain with A20Q, Q130A
modifications: left off: a dimerising Fc or GST; large carriers; small tags and cut ends

Biological target: T1, gp130-Fc
Assay: Competition of OSM-GST with plate-bound wild type OSM for binding to gp130-Fc (ELISA)
Details: not given
Protocol: Nunc Immunoplates (F6 Maxisorp, Life Technologies) were coated overnight (4° C.) with wild type OSM (produced according to Example 7a); 50 μl/well, 1 μg/ml in carbonate/bicarbonate buffer pH 9.4). Plates were washed (×6 in PBS 0.05% tween 20, using Skatron Plate washer), tapped dry and blocked to reduce non-specific binding (200 μl/well, 1% BSA/PBS). Following 1 h incubation (room temperature on a shaking platform) the plates were tapped dry and wild type (wt) or mutant OSM-GST from Example 9b added (50 μl/well, 20-0.002 μg/ml, titrated in 1%BSA/PBS). As a positive control polyclonal anti-human OSM antibody (R&D Systems) was also tested (20-0.02 μg/ml). A complex of gp130-Fc (Produced as below 300 ng/ml) and anti-human IgG alkaline phosphatase conjugate (1:500, Sigma) in 1% BSA/PBS (50 μl/well) was added immediately after the agents under test. Following a 5 h incubation (room temperature on a shaking platform) the plates were washed (×6) and developed using ELISA Amplification System (Life Technologies) as manufacturer's instructions and the OD measured at 490 nm. On each plate the total binding was determined by gp130-Fc/conjugate and OSM in the presence of 1% BSA/PBS, and non-specific binding by gp130-Fc/conjugate in absence of OSM, or conjugate binding to OSM in absence of gp130-Fc.
Mutant and wt OSM-GST were tested to obtain IC50 in 3-6 experiments. The mean OD in the presence of OSM and gp130-Fc in the absence of competing ligand (i.e., total binding) was 1.157 (range 0.825-1.807) and the non specific binding was less than 0.08.

ability to compete with wt OSM for gp130 binding | Molecule
substantial decrease | B1
substantial decrease | B2
substantial decrease | B3
substantial decrease | B4

Same assay, conditions: at the maximum concentration tested (10 μg/ml)

inhibition | Molecule
66±2.3% | B1
15±8% | B3

Tested on: HepG2 B6 cells (STAT-sPAP reporter)
Assay: OSM-GST mutant driven sPAP production in HepG2 B6 assay
Type: cell-based, human
Details: not given
Protocol: HepG2 B6 cells were plated into 96 well plates to a final concentration of 3×10^4 cells per well in 100 μl of media (DMEM (Sigma), 10% HI FCS, 1% non-essential amino acids, 2 mM Glutamine, 500 μg ml^−1 G418, (all from Life Technologies)). Cells were allowed to equilibrate for 48 hours. Putative anti-OSM solid compounds were made up to a stock dilution of 20 mM in DMSO and serially diluted 1:3 in DMSO. This was then further diluted in HepG26B assay media, this is as above media but with 1% heat inactivated FCS, low alkaline phosphatase activity (Life Technologies) substituted for 10% HI FCS. Compounds were diluted 1:3 from a top concentration of […] to a final concentration of 0.09 μM in a final concentration of 1% DMSO. (That is 200, 66.67, 22.22, 7.41, 2.47, 0.82, 0.27, 0.09 and 0 μM). The old media was removed from the wells and replaced with diluted compound also containing 2 ng ml^−1 OSM (R&D Systems), cells were incubated for a further 20 hours. Each dilution was performed in triplicate. 20 μl of media was removed from each well and assayed for sPAP activity using pNPP (p-Nitrophenyl phosphate; Sigma), as a substrate. Endogenous alkaline phosphatase is blocked with L-homoarginine. Optical density of substrate is read at 405-650 nm. Concentration of compound is plotted against OD as a measure of sPAP produced and can be analysed to determine IC50 values.
The assay described in Example 7b above was employed. OSM-GST mutants were diluted to a concentration of 100 ng ml^−using the known concentration of intact OSM mutants generated in Example 9b. A wild type OSM-GST was included for control purposes. Dilutions were made in HepG2 B6 media with 1% heat inactivated FCS, low alkaline phosphatase activity. Serial 1:3 dilutions were then made. (100; 33.33; 11.11; 3.7; 1.23; 0.4 ng ml^−1). 3×10^4 HepG2 B6 were dispensed into individual well of a 96 well plate in 100 μl of media. Cells were allowed to equilibrate for 48 hours. Media was then removed and replaced with 100 μl of diluted OSM-GST mutant. Cells were incubated for a further 20 hours. Each dilution was performed in triplicate. 20 μl of media was removed and assayed for sPAP using pNPP as a substrate. Endogenous ALP was blocked with L-homoarginine. O.D. was read at 405-650 nm. The experiment was repeated twice.

Expt 1 EC50 | Expt 2 EC50 | Expt 3 EC50 | Molecule | driving sPAP production
 |  |  | B1 | less effective at driving sPAP production; also recorded: didn't drive sPAP at all
0.0657 µg/mL | 0.0549 µg/mL |  | B2 | 
0.012 µg/mL | 0.0222 µg/mL |  | B5 | 
0.0195 µg/mL | 0.0255 µg/mL |  | B6 | 
0.0133 µg/mL | 0.013 µg/mL |  | B7 | 
0.093 µg/mL | 0.0103 µg/mL | 0.0408 µg/mL | B8 | 
0.0236 µg/mL | 0.0089 µg/mL |  | B9 | 
0.0324 µg/mL | 0.0138 µg/mL | 0.0473 µg/mL | B10 | 
0.0278 µg/mL | 0.023 µg/mL |  | B11 | 
0.016 µg/mL | 0.0125 µg/mL |  | B12 | 
0.0125 µg/mL | 0.0082 µg/mL |  | B13 | 
 |  |  | B3 | less effective at driving sPAP production; also recorded: didn't drive sPAP at all
 |  |  | B4 | less effective at driving sPAP production; also recorded: didn't drive sPAP at all

Same assay, conditions: relative to wild type, from Mean %

Molecule | 'Potency'
B1 | NONE
B2 | LESS (>120% Less potent than wild type)
B5 | MORE (<80% More potent)
B6 | EQUAL (80-120% Equal potency)
B7 | MORE (<80% More potent)
B8 | LESS (>120% Less potent than wild type)
B9 | MORE (<80% More potent)
B10 | EQUAL (80-120% Equal potency)
B11 | EQUAL (80-120% Equal potency)
B12 | MORE (<80% More potent)
B13 | MORE (<80% More potent)
B3 | NONE
B4 | NONE
